Columns and labels:
PPP2 [1] = molecular target: T1, PPP2 (Madurella mycetomatis, UniProt A0A175WC91); assay: UV decrease of substrate at […] nm; type: biochemical; details: 0.5 mM substrate, 50 mM KPi pH 6.5, RT, 160 ug/ml enzyme; decarboxylation to pyrogallol, weaker than protocatechuic acid
T1 construct: gene MMYC01_201259; synthetic gene in pET15b, E. coli C41, N-terminal His6 tag removed by thrombin; trimer with central K+; no cobalt site

[2] = molecular target: AGDC1 E88A mutant (Arxula adenivorans); assay: SEC; Superdex 200 10/300; with (25 mM Tris 7.5, 50 mM KCl, 100 mM NaCl) or without (25 mM Tris 7.5, 100 mM NaCl) potassium; Bio-rad Gel Filtration Standard; all proteins eluted as a single peak
[3] = molecular target: gallic acid decarboxylase AGDC1 from Arxula adenivorans (Arxula adenivorans); assay: as above
[4] = molecular target: gallic acid decarboxylase AGDC1 from Arxula adenivorans (Arxula adenivorans); assay: crystal structure; hanging drop vapor diffusion, protein 10 mg/ml in 20 mM Tris pH 7.5, with or without 5 mM nitrocatechol alone or with 0.5 mM CoCl2; AGDC1 in PEG 3350, 0.2 M potassium salt, MES; PPP2 in PEG 3350, 0.2 M calcium chloride, MES pH 5.5
PPP2 [5] = molecular target: T1, PPP2; assay: UV decrease of substrate at […] nm; type: biochemical; details: 0.5 mM substrate, 50 mM KPi pH 6.5, RT, 160 ug/ml enzyme; decarboxylation to catechol
AGDC1 = molecular target: T2, AGDC1 (Blastobotrys adeninivorans, UniProt A0A060TAG5); assay: UV decrease of gallic acid at […] nm; type: biochemical; details: read-out: % inhibition at 0.5 mM
T2 construct: synthetic gene in pET15b, E. coli C41, N-terminal His6 tag removed by thrombin; trimer with central K+ and peripheral Co2+ sites
T2 sequence (A0A060TAG5 entry or part of it): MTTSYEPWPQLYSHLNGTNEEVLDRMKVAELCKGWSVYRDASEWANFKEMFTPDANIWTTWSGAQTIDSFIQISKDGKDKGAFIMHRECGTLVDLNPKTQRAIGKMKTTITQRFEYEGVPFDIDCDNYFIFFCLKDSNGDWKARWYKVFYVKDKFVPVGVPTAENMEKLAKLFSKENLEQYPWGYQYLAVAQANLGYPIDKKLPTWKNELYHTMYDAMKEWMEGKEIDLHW

[6] = molecular target: Pea Pathogenity Protein (PPP2) from Madurella mycetomatis (Madurella mycetomatis); assay: SEC; Superdex 200 10/300; with (25 mM Tris 7.5, 50 mM KCl, 100 mM NaCl) or without (25 mM Tris 7.5, 100 mM NaCl) potassium; Bio-rad Gel Filtration Standard; all proteins eluted as a single peak
[7] = molecular target: Pea Pathogenity Protein (PPP2) from Madurella mycetomatis (Madurella mycetomatis); assay: crystal structure; hanging drop vapor diffusion, protein 10 mg/ml in 20 mM Tris pH 7.5, with or without 5 mM nitrocatechol alone or with 0.5 mM CoCl2; AGDC1 in PEG 3350, 0.2 M potassium salt, MES; PPP2 in PEG 3350, 0.2 M calcium chloride, MES pH 5.5

## O=C(O)c1cc(O)c(O)c(O)c1 [gallic acid]
PPP2 [1]
  UV decrease of substrate at 259 nm: PPP2 activity with PCA was ~ sevenfold higher than with GA

## AGDC1 E88A mutant (enzyme)
[2]
  stoichiometry N: 3

## gallic acid decarboxylase AGDC1 from Arxula adenivorans (enzyme)
[3]
  stoichiometry N: 3
[4]
  stoichiometry N: 3

## O=C(O)c1ccc(O)c(O)c1 [protocatechuic acid]
PPP2 [5]
  UV decrease of substrate at 250 nm: PPP2 activity with PCA was ~ sevenfold higher than with GA

## O=[N+]([O-])c1ccc(O)c(O)c1 [4-nitrocatechol]
AGDC1
  inhibition at 500 µM: 98%

## Pea Pathogenity Protein (PPP2) from Madurella mycetomatis (enzyme)
[6]
  stoichiometry N: 3
[7]
  stoichiometry N: 3

Reference: PMC7862292, “Crystal structures of non-oxidative decarboxylases reveal a new mechanism of action with a catalytic dyad and structural twists” (Scientific Reports, 2021)
